2 substances from article PMC8636563 can be followed below.

Test [1] addresses Nse2 ΔLoop1-SIM1 (budding yeast (Saccharomyces cerevisiae)) (UniProt P38632).
Test [2] concerns the target Nse2 1-267 (budding yeast (Saccharomyces cerevisiae)) (UniProt P38632).
The target of test [3] is Δ4C-Nse2 (ΔSIM2) (budding yeast (Saccharomyces cerevisiae)) (UniProt P38632).
Test [4] concerns the target Ubc9 A129K/K153R (yeast (Saccharomyces cerevisiae)) (UniProt P50623).

On to “FL Smt3 (from UniProt Q12306 1-101) (natural protein)”, for which the multiple-turnover SUMO conjugation on cNse4 by Nse2 ΔLoop1-SIM1/Arm-Smc5 against WT-Nse2, 30 °C in test [1] is below 90 % reduction.

Take “ΔN18 Smt3 (from UniProt Q12306 19-101) (domain or fragment)”: in test [2], the Kcat/KM of single-turnover SUMO conjugation on cp53 (0.5 to 8 µM) by WT Nse2/Arm-Smc5 with extra non-conjugatable Smt3, 2 °C came out at 0.025. Moreover, the Kcat/KM of single-turnover SUMO conjugation on cp53 (0.5 to 8 µM) by Δ4C-Nse2 (ΔSIM2)/Arm-Smc5 with extra non-conjugatable Smt3, 2 °C in test [3] turned out to be 0.007. The substance further returned a Kcat of single-turnover discharge of purified Ubc9 K153R~Smt3 K11C/D68R-Alexa488 thioester on cp53 by Nse2/Arm-Smc5, with against without 1.5-fold excess of non-conjugatable SUMOB, 30 °C in test [4] of 3 fold.
